Data: patent US20240216553A1, “DEVELOPMENT OF CD163 TARGETING AGENT FOR IMAGING AND THERAPY” (Washington University, priority 2022, published 2024)
Square brackets hold non-standard residues; d marks the D form. Ends that are not written are not given here. Peptide text beside a SMILES is read from it. * marks the point of attachment. X1 = O=C(O)CN1CCN(CC(=O)O)CCN(CC(=O)NCCN2C(=O)CC(*)C2=O)CCN(CC(=O)O)CC1

What was measured:
[1] = target: T1, recombinant human CCR2 N-terminus protein (1-42 amino acids) (Homo sapiens, UniProt P41597); assay: Peptide ELISA of biotin-labelled peptides; type: binding; design: dose or concentration left out as unconfirmed; settings: n=3/group
T1 construct: recombinant human CCR2 N-terminus protein (1-42 amino acids)
T1 sequence (P41597 1-42): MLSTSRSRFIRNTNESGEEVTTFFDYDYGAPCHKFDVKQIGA
Description: Phage display screening and identification of new CCR2 binding peptides. Using a recombinant human CCR2 N-terminus protein (1-42 amino acids) with a glutathione s-transferase (GST) tag, phage display screening was performed using Ph.D.™-12 peptide library to identify sequences binding to CCR2. After three rounds of phage selections, 50 phages were selected to amplify in E. coli, titer, and for DNA sequencing. Enzyme-linked immunosorbent assay (ELISA) was performed with pre-selected phages and identified five peptide sequences showing potential binding to CCR2. These peptides conjugated with biotin labels were customized for further peptide ELISA assays. […] Therefore, these peptides were selected as CCR2 binding sequences to synthesize peptide-chelator conjugates. To further confirm the specific binding of these peptides, peptide docking studies were performed based on a crystal structure of CCR2 (PDB Id 6GPS) and receptor structures resulting from molecular dynamics simulations of CCR2 and endogenous ligand CCL2 complex using the program AutoDock CrankPep.

[2] = target: CCR2 (human, on THP-1 cells and in human HNSCC tissue) (human) (UniProt P41597); assay: in vitro binding assay using THP-1 cells (competitive receptor binding with the non-radioactive counterpart, per paragraph 179)
[3] = human, in vivo
Description: Translation of [^64Cu]-DOTA-ECL1i for human Imaging. Animal toxicity studies with non-radioactive Cu-DOTA-ECL1i, dosimetry using [^64Cu]-DOTA-ECL1i in naïve mice were performed and submitted the exploratory investigative new drug (eIND) application to US Food Drug Administration (FDA). Following approvals from FDA, Washington University Radioactive Drug Research Committee (RDRC) and Institutional Review Board (IRB), the human dosimetry studied in six healthy volunteers (3 males, 3 females) who were injected with [^64Cu]-DOTA-ECL1i (5.2 mCi-10.4 mCi) and scanned at 15-30 min, 2-4 h, 20 h, and 44 h post injection was initiated. […] Approximately 80% of the activity was excreted in the urine within 2-4 hours after injection. […] The gender average Effective Dose was 0.064±0.012 rem/mCi (0.073 rem/mCi for females and 0.056 rem/mCi for the males). The critical organ for both genders was the urinary bladder wall, with the highest average estimated dose derived from the female model at 0.45 rad/mCi. Therefore, a dose of 8-10 mCi was injected to each patient in the HNSCC patient studies.

[4] = target: T2, CD163 (human, on CD163 overexpressing U87 cells and in human carotid endarterectomy tissue) (human, UniProt Q86VB7 42-1156); assay: competitive cell binding on U87 cells overexpressing CD163; cold ICT-01 displaces ^64Cu-ICT-01
T2 construct: whole, on cells; also called CD163 receptor; human CD163
T2 sequence (Q86VB7 42-1156): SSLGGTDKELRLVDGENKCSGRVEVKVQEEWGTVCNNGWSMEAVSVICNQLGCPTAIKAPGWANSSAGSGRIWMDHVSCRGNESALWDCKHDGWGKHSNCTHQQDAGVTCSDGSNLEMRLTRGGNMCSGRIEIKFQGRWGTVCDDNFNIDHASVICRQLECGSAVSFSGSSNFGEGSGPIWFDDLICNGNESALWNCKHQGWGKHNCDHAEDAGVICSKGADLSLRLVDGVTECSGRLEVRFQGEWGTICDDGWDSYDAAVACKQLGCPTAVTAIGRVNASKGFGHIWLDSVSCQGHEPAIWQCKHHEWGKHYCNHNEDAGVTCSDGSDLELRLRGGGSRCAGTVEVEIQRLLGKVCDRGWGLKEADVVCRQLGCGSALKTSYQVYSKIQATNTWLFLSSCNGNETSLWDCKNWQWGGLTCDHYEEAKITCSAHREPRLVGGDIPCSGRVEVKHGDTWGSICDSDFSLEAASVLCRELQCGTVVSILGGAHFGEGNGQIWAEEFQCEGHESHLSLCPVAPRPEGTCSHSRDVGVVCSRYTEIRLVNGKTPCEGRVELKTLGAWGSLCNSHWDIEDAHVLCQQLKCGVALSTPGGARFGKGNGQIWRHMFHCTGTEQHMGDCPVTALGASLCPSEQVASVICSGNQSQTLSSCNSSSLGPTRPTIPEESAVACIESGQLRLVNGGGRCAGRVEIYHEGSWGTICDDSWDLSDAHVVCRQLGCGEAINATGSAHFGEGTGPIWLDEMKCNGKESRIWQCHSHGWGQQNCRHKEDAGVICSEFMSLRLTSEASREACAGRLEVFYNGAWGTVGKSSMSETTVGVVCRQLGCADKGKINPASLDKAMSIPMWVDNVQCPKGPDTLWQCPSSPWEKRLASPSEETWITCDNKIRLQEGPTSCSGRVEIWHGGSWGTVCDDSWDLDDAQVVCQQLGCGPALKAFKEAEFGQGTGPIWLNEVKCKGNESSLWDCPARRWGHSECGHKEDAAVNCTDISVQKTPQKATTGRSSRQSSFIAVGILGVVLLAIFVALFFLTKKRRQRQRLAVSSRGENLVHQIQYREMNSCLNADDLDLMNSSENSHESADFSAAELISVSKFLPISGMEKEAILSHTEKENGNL
Description: The in vitro cell binding assay of ⁶⁴Cu-ICT-01 was performed in U87 cells, which overexpresses CD163 receptor.

[5] = target: T2, CD163 (human, on CD163 overexpressing …); assay: competitive cell binding on CD163 overexpressing U87 cells; 37 kBq ^64Cu-ICT-01 with non-radioactive ICT-01 at 10^-5-10^-10 M, gamma counting
Description: An in vitro cell binding assay of ⁶⁴Cu-ICT-01 to CD163 was performed with a CD163 overexpressing U87 cell line. U87 cells seeded on a 12-well tissue culture plate were incubated at room temperature with 37 kBq of ⁶⁴Cu-ICT-01 in the presence of non-radioactive ICT-01 in increasing concentrations (10⁻⁵-10⁻¹⁰ M) in binding media (Dulbecco's Modified Eagle Medium (DMEM): 25 mM HEPES, 0.2% bovine serum albumin (BSA), and 0.3 mM 1,10-phenanthroline). The reaction media was aspirated after incubation. Cells were rinsed with 0.8 mL of ice-cold pH 7.4, 0.2% BSA/0.01 M phosphate buffered saline (PBS) twice and lysed in 0.8 mL of 1 M NaOH for 10 min. Each well was rinsed with 0.8 mL of PBS (1×, pH7.4)/0.2% BSA, which was collected into a plastic tube. The radioactivity in tubes was measured with a gamma counter (Wallac Wizard 1480, Perkin Elmer). The half-maximal inhibitory concentration (IC₅₀) for ⁶⁴Cu-ICT-01 was calculated using the GraphPad Prism (10.0.2).

VDDHYGTIVRNG [P08]
binding to CCR2 N-terminus protein compared to GST tag alone and BSA [1]: significantly higher binding

LIPAPGGTPRAG [P21]
binding to CCR2 N-terminus protein compared to GST tag alone and BSA [1]: significantly higher binding

[^64Cu]-DOTA-ECL1i (peptide)
IC50 [2]: 58.3 nM

CC(C)C[C@@H](N)C(=O)NCC(=O)N[C@@H](C(=O)N[C@H](Cc1ccccc1)C(=O)N[C@H](CC(C)C)C(=O)N[C@H](CCCCN)C(=O)N[C@H](CSC1CC(=O)N(CCNC(=O)CN2CCN(CC(=O)O)CCN(CC(=O)O)CCN(CC(=O)O)CC2)C1=O)C(=O)O)[C@H](C)O (stereo partly drawn) [[^64Cu]-DOTA-ECL1i, metal not drawn] (H-[dL]G[dT][dF][dL][dK][dC](X1)-OH; N-terminus and C-terminus assumed)
Effective Dose, females [3]: 0.073 rem/mCi
Effective Dose, males [3]: 0.056 rem/mCi
gender average Effective Dose [3]: 0.064±0.012 rem/mCi
highest average estimated dose, urinary bladder wall (critical organ) [3]: 0.45 rad/mCi

HWKWLKPWAVNT [P15]
binding to CCR2 N-terminus protein compared to GST tag alone and BSA [1]: significantly higher binding

B1: ICT-01 (non-radioactive) (peptide)
peptide: WFWNHGWQWSSK
modifications: not fully specified
notes: also called non-radioactive ICT-01; CD163 targeting peptide ICT-01
IC50 [4]: 26.8 nM
IC50 [5]: 14.4 nM
